The values below come from patent US7132278.

Where a chain is given by its changes, count along the chain named. Numbers in names are those of the source.

The target in this data set is T1, AMARA peptide, synthetic substrate NH2-AMARAASAAALARRR-CO2H.
T1 chain: AMARAASAAALARRR

B1: PASK ΔN, truncated variant of human PASK lacking both PAS domains (protein)
chain: SLPGSTHSTAAELTGPSLVEVLRARPWFEEPPKAVELEGLAACEGEYSQKYSTMSPLGSGAFGFVWTAVDKEKNKEVVVKFIKKEKVLEDCWIEDPKLGKVTLEIAILSRVEHANIIKVLDIFENQGFFQLVMEKHGSGLDLFAFIDRHPRLDEPLASYIFRQLVSAVGYLRLKDIIHRDIKDENIVIAEDFTIKLIDFGSAAYLERGKLFYTFCGTIEYCAPEVLMGNPYRGPELEMWSLGVTLYTLVFEENPFCELEETVEAAIHPPYLVSKELMSLVSGLLQPVPERRTTLEKLVTDPWVTQPVNLADYTWEEVCRVNKPESGVLSAASLEMGNRSLSDVAQAQELCGGPVPGEAPNGQGCLHPGDPRLLTS
In the case of B1, the Km (mM), pre-phosphorylated is 0.3 mM.

B2: human PASK enzyme, wildtype, pre-phosphorylated in the presence of ATP (protein)
chain: MEDGGLTAFEEDQRCLSQSLPLPVSAEGPAAQTTAEPSRSFSSAHRHLSRRNGLSRLCQSRTALSEDRWSSYCLSSLAAQNICTSKLHCPAAPEHTDPSEPRGSVSCCSLLRGLSSGWSSPLLPAPVCNPNKAIFTVDAKTTEILVANDKACGLLGYSSQDLIGQKLTQFFLRSDSDVVEALSEEHMEADGHAAVVFGTVVDIISRSGEKIPVSVWMKRMRQERRLCCVVVLEPVERVSTWVAFQSDGTVTSCDSLFAHLHGYVSGEDVAGQHITDLIPSVQLPPSGQHIPKNLKIQRSVGRARDGTTFPLSLKLKSQPSSEEATTGEAAPVSGYRASVWVFCTISGLITLLPDGTIHGINHSFALTLFGYGKTELLGKNITFLIPGFYSYMDLAYNSSLQLPDLASCLDVGNESGCGERTLDPWQGQDPAEGGQDPRINVVLAGGHVVPRDEIRKLMESQDIFTGTQTELIAGGQLLSCLSPQPAPGVDNVPEGSLPVHGEQALPKDQQITALGREEPVAIESPGQDLLGESRSEPVDVKPFASCEDSEAPVPAEDGGSDAGMCGLCQKAQLERMGVSGPSGSDLWAGAAVAKPQAKGQLAGGSLLMHCPCYGSEWGLWWRSQDLAPSPSGMAGLSFGTPTLDEPWLGVENDREELQTCLIKEQLSQLSLAGALDVPHAELVPTECQAVTAPVSSCDLGGRDLCGGCTGSSSACYALATDLPGGLEAVEAQEVDVNSFSWNLKELFFSDQTDQTSSNCSCATSELRETPSSLAVGSDPDVGSLQEQGSCVLDDRELLLLTGTCVDLGQGRRFRESCVGHDPTEPLEVCLVSSEHYAASDRESPGHVPSTLDAGPEDTCPSAEEPRLNVQVTSTPVIVMRGAAGLQREIQEGAYSGSCHHRDGLRLSIQFEVRRVELQGPTPLFCCWLVKDLLHSQRDSAARTRLFLASLPGSTHSTAAELTGPSLVEVLRARPWFEEPPKAVELEGLAACEGEYSQKYSTMSPLGSGAFGFVWTAVDKEKNKEVVVKFIKKEKVLEDCWIEDPKLGKVTLEIAILSRVEHANIIKVLDIFENQGFFQLVMEKHGSGLDLFAFIDRHPRLDEPLASYIFRQLVSAVGYLRLKDIIHRDIKDENIVIAEDFTIKLIDFGSAAYLERGKLFYTFCGTIEYCAPEVLMGNPYRGPELEMWSLGVTLYTLVFEENPFCELEETVEAAIHPPYLVSKELMSLVSGLLQPVPERRTTLEKLVTDPWVTQPVNLADYTWEEVCRVNKPESGVLSAASLEMGNRSLSDVAQAQELCGGPVPGEAPNGQGCLHPGDPRLLTS
On to B2, for which the Km (mM), pre-phosphorylated came out at 0.2 mM and the “fold lower Km for substrate than the unmodified enzyme” value is 6.5-fold lower Km for substrate than the unmodified enzyme.

B3: human PASK S1287,89A, pre-phosphorylated (protein)
chain: B2 chain with S1287A, S1289A
In the case of B3, the Km (mM), pre-phosphorylated was 0.2 mM.

B4: human PASK S1149A, pre-phosphorylated (protein)
chain: B2 chain with S1149A
Turning to B4, the Km (mM), pre-phosphorylated was 0.6 mM.

B5: human PASK enzyme, wildtype, untreated (unmodified, as purified from baculovirus-infected Sf-9 cells) (protein)
chain: B2 chain
As to B5, the Km (mM), untreated amounted to 1.3 mM.

B6: human PASK S1273,77,80A, pre-phosphorylated (protein)
chain: B2 chain with S1273A, S1277A, S1280A
Regarding B6, the Km (mM), pre-phosphorylated was found to be 0.3 mM.

B7: human PASK S1273-1289A, pre-phosphorylated (protein)
chain: B2 chain with S1273A, S1277A, S1280A, S1287A, S1289A
For the protein B7, the Km (mM), pre-phosphorylated was 0.2 mM.
